Test results as given in the emibetuzumab library of Makowski et al. (2022).

B1: VH:VL chains; a variant is named by its letters at X, in order (parent)
chain 1: QVQLVQSGAEVKKPGASVKVSCKASGYTFTDYXMHWVRQAPGQGLEWMGXVNPNXXXTTYNQKFEGRVTMTTDTSTSTAYMELRSLRSDDTAVYYCARXNXLDXWGQGTTVTVSS
chain 2: DIQMTQSPSSLSASVGDRVTITCSVSSSVSSIYLHWYQQKPGKAPKLLIYSTSNLASGVPSRFSGSGSGTDFTLTISSLQPEDFATYYCQVYSGYPLTFGGGTKVEIK

Variants of: B1
Test: yeast display scFab, FACS + sequencing
Method in brief: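 The non-specific binding call was based on sorted and sequenced yeast displaying a heavy-chain CDR mutant scFab library. Labelling used anti-Myc with biotinylated ovalbumin (260 μg/mL in PBSB, 3 h, room temperature) or soluble membrane proteins (130 μg/mL, 20 min on ice), and FACS collected the top 25% and bottom 10% of binders in two replicates. Positive meant present in ≥3 of 4 pooled positive samples and in no negatives, and negative meant the converse.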
In the case of ATGGDDGF, the non-specific binding call is reported as “no binding”.
For DTGGDDGF, the non-specific binding call was “no binding”.
For STGGDDGF, the non-specific binding call was “no binding”.
With VTGGDDGY the non-specific binding call was “no binding”.
For VTGGDDSA, the non-specific binding call was “no binding”.
With YTGGDDVD the non-specific binding call was “no binding”.
With YTGGDDVV the non-specific binding call was “no binding”.
In the case of YTGGDDVY, the non-specific binding call is reported as “no binding”.
For VTGGDDVY, the non-specific binding call was “no binding”.
With STGGDDVY the non-specific binding call was “no binding”.
With DTGGDDWF the non-specific binding call was “no binding”.
In the case of VTGGDDWF, the non-specific binding call is reported as “no binding”.
In the case of ATGGDDWF, the non-specific binding call is reported as “no binding”.
For YTGGDDWV, the non-specific binding call was “no binding”.
In the case of VTGGDDWV, the non-specific binding call is reported as “no binding”.
With VTGGDDWY the non-specific binding call was “no binding”.
In the case of VTGGDSAS, the non-specific binding call is reported as “no binding”.
For VTGGDSGD, the non-specific binding call was “no binding”.
For ATGGDSGD, the non-specific binding call was “no binding”.
With VTGGDSLV the non-specific binding call was “no binding”.
For VTGGDSSA, the non-specific binding call was “no binding”.
With VTGGDSSD the non-specific binding call was “no binding”.
In the case of YTGGDSVA, the non-specific binding call is reported as “no binding”.
For VTGGDSVD, the non-specific binding call was “no binding”.
In the case of YTGGDSVD, the non-specific binding call is reported as “no binding”.
In the case of VTGGDSWF, the non-specific binding call is reported as “no binding”.
With VTGGDYAV the non-specific binding call was “no binding”.
In the case of DTGGGAGA, the non-specific binding call is reported as “no binding”.
In the case of VTGGGASF, the non-specific binding call is reported as “no binding”.
For DTGGGAWD, the non-specific binding call was “no binding”.
For DTGGGDAA, the non-specific binding call was “no binding”.
For DTGGGDAV, the non-specific binding call was “no binding”.
With DTGGGDAY the non-specific binding call was “no binding”.
For VTGGGDGA, the non-specific binding call was “no binding”.
For VTGGGDGS, the non-specific binding call was “no binding”.
In the case of YTGGGDGV, the non-specific binding call is reported as “no binding”.
In the case of STGGGDGV, the non-specific binding call is reported as “no binding”.
In the case of DTGGGDLA, the non-specific binding call is reported as “no binding”.
For ATGGGYVA, the non-specific binding call was “binds”.
With STGGNDAD the non-specific binding call was “no binding”.
With YTGGNDAD the non-specific binding call was “no binding”.
With DTGGSASA the non-specific binding call was “no binding”.
With VTGGSDVY the non-specific binding call was “no binding”.
In the case of DTGKDAGD, the non-specific binding call is reported as “no binding”.
With VTGKGDGV the non-specific binding call was “no binding”.
With STGKGSGV the non-specific binding call was “no binding”.
For YTGKSVAV, the non-specific binding call was “binds”.
With FTGRAAAV the non-specific binding call was “no binding”.
For ATGRAAGD, the non-specific binding call was “no binding”.
For YTGRAALA, the non-specific binding call was “no binding”.
In the case of VTGRAALA, the non-specific binding call is reported as “no binding”.
For STGRAALA, the non-specific binding call was “no binding”.
In the case of VTGRAAWV, the non-specific binding call is reported as “no binding”.
With ATGRADGV the non-specific binding call was “no binding”.
In the case of ATGRADVY, the non-specific binding call is reported as “no binding”.
For DTGRADWA, the non-specific binding call was “no binding”.
With STGRADWA the non-specific binding call was “no binding”.
For ATGRADWA, the non-specific binding call was “no binding”.
In the case of ATGRASLD, the non-specific binding call is reported as “no binding”.
For FTGRAYGF, the non-specific binding call was “binds”.
For FTGRGAAA, the non-specific binding call was “binds”.
In the case of FTGRGAGV, the non-specific binding call is reported as “binds”.
For FTGRGAVA, the non-specific binding call was “binds”.
In the case of VTGRGDLA, the non-specific binding call is reported as “no binding”.
For VTGRGDVA, the non-specific binding call was “no binding”.
In the case of VTGRGDVF, the non-specific binding call is reported as “no binding”.
In the case of YTGRGSAA, the non-specific binding call is reported as “binds”.
For FTGRGSAD, the non-specific binding call was “binds”.
For YTGRGSGV, the non-specific binding call was “binds”.
In the case of DTGRGSGV, the non-specific binding call is reported as “no binding”.
With YTGRGSLD the non-specific binding call was “binds”.
For VTGTASSV, the non-specific binding call was “no binding”.
With VTGTGAAD the non-specific binding call was “no binding”.
For VTGTGAAV, the non-specific binding call was “no binding”.
In the case of DTGTGAGD, the non-specific binding call is reported as “no binding”.
With VTGTGAGV the non-specific binding call was “no binding”.
For DTGTGAGV, the non-specific binding call was “no binding”.
For STGTGALA, the non-specific binding call was “no binding”.
With DTGTGALV the non-specific binding call was “no binding”.
For DTGTGASD, the non-specific binding call was “no binding”.
For YTGTGAVF, the non-specific binding call was “no binding”.
With VTGTGAVV the non-specific binding call was “no binding”.
For VTGTGAVY, the non-specific binding call was “no binding”.
In the case of DTGTGDAA, the non-specific binding call is reported as “no binding”.
With VTGTGDAD the non-specific binding call was “no binding”.
In the case of VTGTGDAV, the non-specific binding call is reported as “no binding”.
In the case of VTGTGDGA, the non-specific binding call is reported as “no binding”.
With VTGTGDGV the non-specific binding call was “no binding”.
For DTGTGDGV, the non-specific binding call was “no binding”.
In the case of DTGTGDSA, the non-specific binding call is reported as “no binding”.
For DTGTGDVA, the non-specific binding call was “no binding”.
With DTGTGDVF the non-specific binding call was “no binding”.
For VTGTGDVV, the non-specific binding call was “no binding”.
For VTGTGDVY, the non-specific binding call was “no binding”.
With VTGTGDWF the non-specific binding call was “no binding”.
In the case of DTGTGDWV, the non-specific binding call is reported as “no binding”.
For VTGTGDWV, the non-specific binding call was “no binding”.
With YTGTGSGA the non-specific binding call was “no binding”.
With FTGTGSGA the non-specific binding call was “no binding”.
For ATGTGSGA, the non-specific binding call was “no binding”.
In the case of DTGTGSGA, the non-specific binding call is reported as “no binding”.
With STGTGSGA the non-specific binding call was “no binding”.
In the case of VTGTGSGD, the non-specific binding call is reported as “no binding”.
In the case of VTGTGSGF, the non-specific binding call is reported as “no binding”.
With VTGTGSLD the non-specific binding call was “no binding”.
In the case of VTGTGSLV, the non-specific binding call is reported as “no binding”.
With VTGTGSSA the non-specific binding call was “no binding”.
For DTGTGSSA, the non-specific binding call was “no binding”.
With VTGTGSSD the non-specific binding call was “no binding”.
